Patent US20170355769A1 (AbbVie / Abbott, published 2017)
Positions count from the first letter of the chain named.

T1: Human full length B7-H3 (human, UniProt Q5ZPR3 29-534)
T1 construct: On 3T12 fibroblasts expressing full length human B7-H3 or on NCI-H1650 cells; signal peptide residues 1-28 stated; also called huB7-H3; CD276
T1 sequence: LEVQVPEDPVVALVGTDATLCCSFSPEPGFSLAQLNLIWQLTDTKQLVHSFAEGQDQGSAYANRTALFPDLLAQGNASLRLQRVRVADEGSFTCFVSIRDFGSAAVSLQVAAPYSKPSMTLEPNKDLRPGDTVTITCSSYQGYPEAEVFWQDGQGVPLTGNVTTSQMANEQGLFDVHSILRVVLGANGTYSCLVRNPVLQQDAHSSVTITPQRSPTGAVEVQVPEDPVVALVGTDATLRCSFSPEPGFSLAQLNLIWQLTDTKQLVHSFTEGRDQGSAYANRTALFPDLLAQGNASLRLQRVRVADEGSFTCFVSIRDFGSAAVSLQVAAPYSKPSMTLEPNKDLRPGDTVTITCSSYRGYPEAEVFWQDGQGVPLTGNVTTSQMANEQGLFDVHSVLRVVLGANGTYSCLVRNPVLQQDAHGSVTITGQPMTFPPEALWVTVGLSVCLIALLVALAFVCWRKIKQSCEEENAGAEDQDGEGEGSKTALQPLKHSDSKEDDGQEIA

T2: Human B7-H3-ECD (His tag) (human, UniProt Q5ZPR3 29-461)
T2 construct: SPR analyte; also called huB7-H3; soluble ECD of human B7-H3
T2 sequence: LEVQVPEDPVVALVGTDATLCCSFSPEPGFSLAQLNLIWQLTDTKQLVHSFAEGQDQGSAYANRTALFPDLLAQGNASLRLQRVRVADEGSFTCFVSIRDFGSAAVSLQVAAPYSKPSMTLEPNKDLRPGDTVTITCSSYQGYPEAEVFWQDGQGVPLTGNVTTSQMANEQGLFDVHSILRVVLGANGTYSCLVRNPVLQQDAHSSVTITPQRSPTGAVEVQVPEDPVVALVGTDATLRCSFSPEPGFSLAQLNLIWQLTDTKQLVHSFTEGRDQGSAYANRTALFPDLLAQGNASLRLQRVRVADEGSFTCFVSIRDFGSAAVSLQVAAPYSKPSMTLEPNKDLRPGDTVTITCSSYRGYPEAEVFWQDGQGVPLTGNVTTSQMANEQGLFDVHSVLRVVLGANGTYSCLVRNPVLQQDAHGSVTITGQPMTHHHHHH

B1: huAb18v10-CZ (antibody, V domains shown)
VH: EVQLVQSGAEVKKPGSSVKVSCKASGYSFTSYTIHWVRQAPGQGLEWMGYINPNSRNTDYAQKFQGRVTLTADKSTSTAYMELSSLRSEDTAVYYCARYSGSTPYWYFDVWGQGTTVTVSS
VL: DIQLTQSPSFLSASVGDRVTITCRASSSVSYMNWYQQKPGKAPKPWIYATSNLASGVPSRFSVSGSGTEHTLTISSLQPEDFATYYCQQWSSNPLTFGQGTKLEIK
modifications: synthon CZ on reduced interchain Cys
notes: ADC, DAR 2.7
B2: huAb18v6-CZ (antibody, V domains shown)
VH: B1 VH
VL: EIVLTQSPDFQSVTPKEKVTITCRASSSVSYMNWYQQKPDQSPKLLIKATSNLASGVPSRFSGSGSGTDFTLTINSLEAEDAATYYCQQWSSNPLTFGQGTKLEIK
modifications: synthon CZ on reduced interchain Cys
notes: ADC, DAR 3.4
B3: huAb18v3-CZ (antibody, V domains shown)
VH: B1 VH with M48I, A61N, Q65K, G66D, V68T, K74R
VL: B1 VL with A42S, G65V
modifications: synthon CZ on reduced interchain Cys
notes: ADC, DAR 2.4
B4: huAb18v5-CZ (antibody, V domains shown)
VH: B1 VH with A61N, Q65K, G66D, L70I
VL: B2 VL
modifications: synthon CZ on reduced interchain Cys
notes: ADC, DAR 3.4
B5: huAb18v8-CZ (antibody, V domains shown)
VH: B1 VH with M48I, A61N, Q65K, G66D, V68T, K74R
VL: B1 VL
modifications: synthon CZ on reduced interchain Cys
notes: ADC, DAR 2.6
B6: huAb18v1-CZ (antibody, V domains shown)
VH: B1 VH with A61N, Q65K, G66D, L70I
VL: B1 VL with P45L, W46L, V63G, H70F
modifications: synthon CZ on reduced interchain Cys
notes: ADC, DAR 2.6
B7: huAb18v7-CZ (antibody, V domains shown)
VH: B1 VH
VL: B2 VL with L45P, L46W, K48Y, G63V, G65V, F70H
modifications: synthon CZ on reduced interchain Cys
notes: ADC, DAR 4.3
B8: huAb18v9-CZ (antibody, V domains shown)
VH: B1 VH with M48I, A61N, Q65K, G66D, V68T, K74R
VL: B2 VL with L45P, L46W, K48Y, G63V, G65V, F70H
modifications: synthon CZ on reduced interchain Cys
notes: ADC, DAR 2.4
B9: huAb18v4-CZ (antibody, V domains shown)
VH: B1 VH
VL: B1 VL with A42S, G65V
modifications: synthon CZ on reduced interchain Cys
notes: ADC, DAR 2.5
B10: huAb18v2-CZ (antibody, V domains shown)
VH: B1 VH
VL: B1 VL with P45L, W46L, V63G, H70F
modifications: synthon CZ on reduced interchain Cys
notes: ADC, DAR 1.8
B11: chAb4 (antibody, IgG1, V domains shown)
VH: QVQLQQPGAELVKPGASVKLSCKASGYSFTSYWMHWVKQRPGQGLEWIGMIHPNSGSNNYNEKFKSKATLTVDKSSNTAYMQLSSLTSEDSAVYYCARRLGLHFDYWGQGTTLTVSS
VL: DIVMTQSQKFMSTPVGDRVSITCKASQNVGTAVAWYQQKPGQSPKLLIYSASNRYTGVPDRFTGSGSGTDFTLTISNMQSEDLADYFCQQYSSYPYTFGGGTKLEIK
notes: chimeric, huIgG1/k
B12: chAb11 (antibody, IgG1, V domains shown)
VH: EVKLVESGGGLVQPGGSLRLSCATSGFTFTNYYMSWVRQPPGKALEWLGFIRNKANDYTTEYSASVKGRFTISRDNSQSILYLQMNTLRAEDSATYYCARESPGNPFAYWGQGTLVTVSA
VL: DIVMTQSPSSLTVTAGEKVTMTCKSSQSLLNSGTQKNFLTWYQQKPGQPPKLLIYWASTRESGVPDRFTGSGSGTDFTLTISSVQAEDLAVYFCQNDYIYPLTFGAGTKLELK
notes: chimeric, huIgG1/k
B13: chAb2 (antibody, IgG1, V domains shown)
VH: QVQLQQPGAELVKPGASVKLSCKASGYTFTSYWMHWVKQRPGQGLEWIGMIHPDSGTTNYNEKFRSKATLTVDKSSSTAYMQLSSLTSEDSAVYYCAVYYGSTYWYFDVWGTGTTVTVSS
VL: DVVMTQTPLSLPVSLGDQAYISCRSSQSLVHINGNTYLHWYRQKPGQSPKLLIYKVSNRFSGVPDRFSGSGSGTDFTLKISRVEAEDLGVYFCSQSTHFPFTFGSGTKLEIK
notes: chimeric, huIgG1/k
B14: chAb6 (antibody, IgG1, V domains shown)
VH: QVQLQQSGAELMKPGASVKISCKATGYTFSRYWIEWVKQRPGHGLEWIGEILPGSGSTNYNEKFKGKATFTADTSSNTAYMQVSSLTSEDSAVHYCARRGYGYVPYALDYWGQGTSVTVSS
VL: EIQMTQTTSSLSASLGDRVTISCRASQDISNSLNWYQQKPDGTVNLLIYYTSRLYSGVPSRFSGSGSGTDYSLTISNLEQEDIATYFCQQGNTLPYTFGGGTKLEIK
notes: chimeric, huIgG1/k
B15: huAb18v6 (antibody, V domains shown)
VH: B1 VH
VL: B2 VL
notes: humanized IgG
B16: huAb18v10 (antibody, V domains shown)
VH: B1 VH
VL: B1 VL
notes: humanized IgG
B17: huAb18v5 (antibody, V domains shown)
VH: B1 VH with A61N, Q65K, G66D, L70I
VL: B2 VL
notes: humanized IgG
B18: huAb18v3 (antibody, V domains shown)
VH: B1 VH with M48I, A61N, Q65K, G66D, V68T, K74R
VL: B1 VL with A42S, G65V
notes: humanized IgG
B19: huAb18v8 (antibody, V domains shown)
VH: B1 VH with M48I, A61N, Q65K, G66D, V68T, K74R
VL: B1 VL
notes: humanized IgG
B20: huAb18v4 (antibody, V domains shown)
VH: B1 VH
VL: B1 VL with A42S, G65V
notes: humanized IgG
B21: huAb18v1 (antibody, V domains shown)
VH: B1 VH with A61N, Q65K, G66D, L70I
VL: B1 VL with P45L, W46L, V63G, H70F
notes: humanized IgG
B22: huAb18v7 (antibody, V domains shown)
VH: B1 VH
VL: B2 VL with L45P, L46W, K48Y, G63V, G65V, F70H
notes: humanized IgG
B23: huAb18v9 (antibody, V domains shown)
VH: B1 VH with M48I, A61N, Q65K, G66D, V68T, K74R
VL: B2 VL with L45P, L46W, K48Y, G63V, G65V, F70H
notes: humanized IgG
B24: huAb18v2 (antibody, V domains shown)
VH: B1 VH
VL: B1 VL with P45L, W46L, V63G, H70F
notes: humanized IgG

Biological target: T1, Human full length B7-H3
Assay: FACS (Example 6 method)
Description: (§1) Cells were harvested from flasks when approximately 80% confluent using Gibco® Cell Dissociation Buffer. Cells were washed once in PBS/1% FBS (FACS buffer) then resuspended at 2.5×10⁶ cells/mL in FACS buffer. 100 μL of cells/well were added to a round bottom 96-well plate. 10 μL of a 10× concentration of mAb/ADC (final concentrations are indicated the figures). Wells were washed twice with FACS buffer and resuspended in 50 μL of secondary Ab (AlexaFluor 488) diluted in FACS buffer. The plate was incubated at 4° C. for one hour and washed twice with FACS buffer. Cells were resuspended in 100 μL of PBS/1% formaldehyde and analyzed on a Becton Dickinson LSRII flow cytometer. Data was analyzed using WinList flow cytometry analysis software.
(§2) The parental chAb18 from which the variants were derived was also tested as a comparator.

| Binder | EC50 |
| --- | --- |
| B1 | 1.19 nM |
| B2 | 2.09 nM |
| B3 | 1.27 nM |
| B4 | 2.91 nM |
| B5 | 1.98 nM |
| B6 | 1.27 nM |
| B7 | 1.92 nM |
| B8 | 1.58 nM |
| B9 | 0.9 nM |
| B10 | 2.25 nM |

Biological target: T1, Human full length B7-H3
Assay: FACS, NCI-H1650 cells
Description: To generate purified chimeric antibodies, expression vectors were transiently transfected into HEK293 6E suspension cell cultures in a ratio of 60% to 40% light to heavy chain construct. 1 mg/ml of polyethylenimine (PEI) or 2.6 μL/mL of Expifectamine was used to transfect the cells. Cell supernatants were harvested after five days in shaking flasks, spun down to pellet cells, and filtered through 0.22 μm filters to separate IgG from culture contaminants. Antibody-containing supernatants were purified on Akta Pure using protein A mAb SelectSure. Columns were equilibrated in PBS pH 7.4, supernatants were then passed through the column and a wash was performed with PBS pH 7.4. IgG were eluted with 0.1 M acetic acid pH 3.5 and collected in several aliquots. Fractions containing IgG were pooled and dialyzed in PBS overnight at 4° C.
as §1

| Binder | EC50 |
| --- | --- |
| B11 | 0.56 nM |
| B12 | 1.12 nM |
| B13 | 0.1 nM |
| B14 | 0.33 nM |

Biological target: T2, Human B7-H3-ECD (His tag)
Assay: SPR Biacore, naked mAb
Description: Biacore T200 SPR instruments were used to measure the binding kinetics of human B7-H3 (analyte) binding to various mAbs (ligands). The assay format was Fc-based capture via immobilized anti-mouse (Fc) (Pierce 31170) or immobilized anti-human (Fc) (Pierce 31125). A standard amine coupling protocol was employed to immobilize the capture reagents via primary amines to the carboxy-methyl (CM) dextran surface of CM5 sensorchips (Biacore); capture antibodies were coupled to a level of approximately 5000RU. For binding kinetic measurements the assay buffer was HBS-EP+ (Biacore): 10 mM Hepes, pH7.4, 150 mM NaCl, 3 mM EDTA, 0.05% polysorbate 20. During the assay, all measurements were referenced against the capture surface alone. Each assay cycle consisted of the following steps: 1) Capture of ligand to approximately 50RU; 2) Analyte injection over both reference and test surface, 240 μL at 80 μL/min, after which the dissociation was monitored for 900 seconds at 80 μL/min; 3) Regeneration of capture surface with low pH glycine. […] Data were processed and fit to a 1:1 binding model using Biacore T200 Evaluation Software to determine the binding kinetic rate constants, kₐ (on-rate) and kd (off-rate), and the equilibrium dissociation constant (affinity, KD).
as §2

| Binder | Kd |
| --- | --- |
| B15 | 0.2 nM |
| B16 | 0.25 nM |
| B17 | 0.23 nM |
| B18 | 0.23 nM |
| B19 | 0.25 nM |
| B20 | 0.57 nM |
| B21 | 0.52 nM |
| B22 | 0.4 nM |
| B23 | 0.38 nM |
| B24 | 0.69 nM |
